Read-outs that look alike come from different tables or passages of the source. *1 amine or outer side, *2 acyl side, *3 side chain or, on linkers, in order; H or OH if unused. Where a SMILES comes first, the peptide text is derived from it. Where no end group is shown, it is not given here. [ ]: non-standard residue; d: D form. NEtW = N-ethyl-tryptophan (F149), CCN([C@@H](Cc1c[nH]c2ccccc12)C(=O)[*:2])[*:1]; X2 = O=C([C@H](CC1CCC(F)(F)CC1)N[*:1])[*:2]; 2Nal = N[C@@H](Cc1ccc2ccccc2c1)C(=O)O; hCha = N[C@@H](CCC1CCCCC1)C(=O)O; Cha = N[C@@H](CC1CCCCC1)C(=O)O; F182 = not defined here; F72 = not defined here
Tests used:
[1] = biological target: T1, HEK293 cells expressing the ectodomain of GABABR1a comprising SD1 (Homo sapiens, UniProt Q9UBS5); test: Flow-cytometry cell-based binding assay, competition with biotinylated 9-mer; settings: peptide at 100 μM, inhibition of biotin-9mer (10 μM) binding
T1 construct: HEK293 were transfected with plasmids encoding the ectodomain of GABABR1a (as in Rice et al., 2019); expressed in transfected cells; host or cells: HEK293
Method: HEK cells expressing GABABR1a-SD1 were incubated with peptides of the application and the binding of 9-mer in the presence of the peptides was measured. The 9-mer peptide is biotinylated and detected with a commercial antibody.
(§1) Next, the top ranking compounds were tested in a cell-based binding assay. HEK293 cells were transformed to express the ectodomain of GABABR1a comprising SD1. In this cell-based assay, SD1 is expressed on the GABABR1a ectodomain and can adopt a more physiological conformation, compared to the purified SD1 protein used in the primary assay (FP assay).
(§2) HEK293 were transfected with plasmids encoding the ectodomain of GABABR1a (as in Rice et al., 2019), carrying a His-tag at the N-terminal. After 24 h of expression, cells were harvested and adjusted to a concentration of 1×10^6 cells/mL in ice-cold 2% FBS/PBS. Incubation with each peptide (in dose-response curve) was carried out at 4° C. for 1 h, followed by incubation with the biotion-9mer (10 μM) peptide during 30 min. Detection antibodies recognizing either His protein or biotin were added for a period of 30 min. The assay plate containing the cells was loaded into the Attune NxT Cytometer, parameters were adjusted accordingly with the cell type and signal intensity. In each experiment, positive and negative control were added to the plate.

[2] = biological target: T2, GABABR1a-SD1 (SD1-FITC-9mer complex) (Homo sapiens, UniProt Q9UBS5); test: Fluorescence polarization (FP) competition assay with FITC-9mer; format: binding; settings: peptide at 50 μM; inhibition of FITC-9mer binding to SD1
T2 construct: The synthetic gene encoding for residues 26-96 of the Sushi1 protein was cloned into a pFloat-SUMO vector; His-SUMO (with 3C protease site) (N, cleaved yes); made in house; host or cells: E. coli BL21(DE3)
Method: Intrigued by the surprising results of the 5-mer, it was decided to set up a medium- to high-throughput screen to optimize the 5-mer sequence. Several assays were tested to find a reproducible, robust and cost-effective assay that is also suitable for high-throughput screening. A fluorescence polarization (FP) assay was selected. FP measurements are well-known for receptor binding assays. The assay is based on the rotational movement of fluorescently labelled molecules in solution. […] The FP assay was optimized using the FITC labelled sAPP 9-mer (FIG. 1).
(§3) To screen for GABABR1a binders using unlabelled test compounds, the assay was turned into a competition assay using FITC-9mer. […] To validate this inhibitor assay, the IC50 values were determined of the 17-mer, 9-mer, 5-mer as well as those from 3 negative controls: 10-mer, scrambled 17-mer and a scrambled 9-mer (FIG. 2).
(§4) To determine if the peptides of this application were able to disrupt the SD1-9-mer complex, each peptide (in single point or dose-response curve) tested was incubate with SD1 protein for 1 h at RT. After this initially incubation, FITC-9mer was added to the previous mix and incubated during 2 h at RT. The signal intensity was measure in an appropriate plate reader using the following settings: Number of flashes per well: 200; Excitation: F482-16; Dichroic filter: FLP 504; Emission A F530-40; Gain A: 738, Gain B: 736. The assay was conducted in a 384-well plate.

[3] = biological target: T3, Sushi domain 1 of the human GABA B1a receptor (human, UniProt Q9UBS5 26-96); test: FP competition vs FITC-9mer on purified SD1
T3 construct: Purified recombinant protein from E. coli; also called SD1; GABABR1a-SD1
Method: as §3
Based on structural information of DIYWS-SD1 and DIWWS-SD1 co-crystals, 48 peptides containing non-natural residues were manually designed and checked for binding to the GABABR1a SD1 in the FP assay at a concentration of 50 μM. These non-natural peptides were categorized based on the IC50 values obtained in the FP assay (Table 3). […] The listed non-natural 5-mers all share D-aspartate was on position 1 (residue position 4 of the 9-mer), L-isoleucine on position 2 (residue position 5 of the 9-mer), L-tryptophane on position 4 (residue position 7 of the 9-mer) and L-serine on position 5 (residue position 8 of the 9-mer), while position 3 is selected from the list consisting of L-tyrosine, isoethylmethyl-benzene, 6-chloro-3-methyl-1H-indole, methylcyclohexane, ethylcyclohexane, 2-naphthalene, ethylbenzene, 1,1-difluoro-4-cyclohexyl, 4-methyl-1-methoxy-2-methylbenzene, 1-chloro-4-methylbenzene, 4-methylphenyl-methanol, 3-methylbenzoic acid and 4-methylaniline.

[4] = biological target: T3, Sushi domain 1 of the human GABA B1a …; test: ITC, peptide titrated into purified SD1
Method: (§5) The Sushi-1 protein was dialysed overnight to PBS buffer and diluted to 30 μM in the same buffer. The peptides were resuspended in PBS at a stock concentration of 3 mM and diluted further in the same buffer to 300 μM. ITC experiments were performed on a Microcal ITC200 device. Titrations comprised 26×1.5 μL injections of peptide into protein, with 90 s intervals. An initial injection of ligand (0.5 μL) was made and discarded during data analysis. The data were fitted to a single binding site model using the Microcal LLC ITC₂₀₀. Original software provided by the manufacturer.

[5] = biological target: T4, Ectodomain of GABABR1a comprising SD1, expressed on HEK293 cells with N-terminal His-tag (human, UniProt Q9UBS5 20-591, limits assumed); test: flow cytometry competition vs biotin-9mer on HEK293 cells expressing GABABR1a ectodomain
T4 construct: extracellular domain; also called GABABR1a-SD1 (on cells); GABABR1a ectodomain
Method: as §1, with “assay). Before testing the active compounds, it was confirmed that 9-mer (tagged with Biotin) binds specifically to cells expressing GABABR1a-SD1 and not GABABR1b.” for “assay).”
as §2

[6] = biological target: T3, Sushi domain 1 of the human GABA B1a …; test: ITC, peptide titrated into purified SD1; remark: listed apart in the source
Method: First, we wondered whether the wild-type sAPP 9-mer peptide would be the optimal sequence in terms of SD1 binding or whether sequence variants of the sAPP 9-mer would have improved binding to the GABABR1a-SD1. Therefore a panel of single and double sAPP 9-mer mutants was generated. An alanine scan was performed for the residues on position 1 to position 7. Based on an ITC assay, these single mutant peptides bound the SD1 with the same or slightly higher Kd (Table 1). Also the double mutants VIB_P04, VIB_P05 and VIB_P19 bound with a similar Kd to SD1 compared to the wild-type 9-mer. We have also tested the effect of the D-isomer of the amino residues on position 1 to 4, in single or multiple combinations. None of the mutations had strong effects on the measured Kd (Table 1). We therefore conclude that the wild-type sAPP 9-mer is already optimized but that many variants bind as good to SD1 and thus will modulate GABABR1a in a similar manner.
as §5

[7] = biological target: T3, Sushi domain 1 of the human GABA B1a …; test: FP competition vs FITC-9mer on purified SD1; remark: listed apart in the source
Method: Next, 35 variants of the DVWWG 5-mer peptide containing natural residues were tested in the above described FP assay. The peptides were tested at a concentration of 50 μM.
as §4

T3 sequence (Q9UBS5 26-96 limits assumed): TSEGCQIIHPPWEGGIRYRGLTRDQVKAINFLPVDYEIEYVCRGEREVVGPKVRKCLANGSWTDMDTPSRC
T2 sequence (Q9UBS5 26-96, one chain of several): as the sequence (Q9UBS5 26-96 limits assumed) above
T1 sequence (Q9UBS5 20-591 limits assumed): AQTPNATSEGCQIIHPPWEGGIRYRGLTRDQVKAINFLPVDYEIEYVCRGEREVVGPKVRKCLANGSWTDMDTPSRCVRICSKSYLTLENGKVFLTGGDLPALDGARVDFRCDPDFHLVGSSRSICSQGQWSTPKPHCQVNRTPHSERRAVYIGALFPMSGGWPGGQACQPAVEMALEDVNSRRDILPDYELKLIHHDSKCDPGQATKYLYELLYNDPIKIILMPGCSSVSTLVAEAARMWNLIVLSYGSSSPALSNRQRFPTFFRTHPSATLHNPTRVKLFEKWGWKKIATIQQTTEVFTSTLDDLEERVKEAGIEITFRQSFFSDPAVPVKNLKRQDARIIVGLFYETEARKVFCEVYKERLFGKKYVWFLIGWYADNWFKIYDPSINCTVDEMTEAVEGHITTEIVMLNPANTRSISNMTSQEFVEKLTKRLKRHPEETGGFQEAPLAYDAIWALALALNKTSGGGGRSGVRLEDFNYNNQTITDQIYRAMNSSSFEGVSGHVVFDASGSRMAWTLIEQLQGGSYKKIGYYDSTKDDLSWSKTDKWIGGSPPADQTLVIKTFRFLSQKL
T4 sequence (Q9UBS5 20-591 limits assumed): as above

CC[C@H](C)[C@H](NC(=O)[C@H](N)CC(=O)O)C(=O)N[C@@H](Cc1ccc2ccccc2c1)C(=O)N[C@@H](Cc1c[nH]c2ccccc12)C(=O)N[C@@H](CO)C(=O)O [VIB-0068895] (H-[dD]I[2Nal]WS-OH; N-terminus and C-terminus assumed)
inhibition at 100 µM [1]: 77% | inhibition at 50 µM [2]: 96.3%

CC[C@H](C)[C@H](NC(=O)[C@H](N)CC(=O)O)C(=O)N[C@@H](CCC1CCCCC1)C(=O)N[C@@H](Cc1c[nH]c2ccccc12)C(=O)N[C@@H](CO)C(=O)O [VIB-0068903] (H-[dD]I[hCha]WS-OH; N-terminus and C-terminus assumed)
inhibition at 100 µM [1]: 76% | inhibition at 50 µM [2]: 93.9%

CC[C@H](C)[C@H](NC(=O)[C@H](N)CC(=O)O)C(=O)N[C@@H](CC1CCCCC1)C(=O)N[C@@H](Cc1c[nH]c2ccccc12)C(=O)N[C@@H](CO)C(=O)O [VIB-0068905] (H-[dD]I[Cha]WS-OH; N-terminus and C-terminus assumed)
inhibition at 100 µM [1]: 68.3% | inhibition at 50 µM [2]: 94.8%

CC[C@H](C)[C@H](NC(=O)[C@H](N)CC(=O)O)C(=O)N[C@@H](CC1CCC(F)(F)CC1)C(=O)N[C@@H](Cc1c[nH]c2ccccc12)C(=O)N[C@@H](CO)C(=O)O [VIB-0068907] (H-[dD]I[X2]WS-OH; N-terminus and C-terminus assumed)
inhibition at 100 µM [1]: 47.2% | inhibition at 50 µM [2]: 86.2%

B1: VIB-0068894 (peptide)
peptide: DIXWS
modifications: D-aspartic acid at position 1; position 3 (X) is the non-natural residue F126 = 6-chloro-3-methyl-1H-indole
notes: Peptidomimetic 5-mer; X marks the non-natural residue
% inhibition 50 µM [3]: 96.8% | IC50 [3]: 7.12 µM | Kd [4]: 0.34 µM | % inhibition 100 µM [5]: 84.2% | IC50 [5]: 28.7 µM

DD[dS]DVWWGG (Printed as DD{D-SER}DVWWGG) [VIB_P10]
Kd [6]: 8.47 µM

DASDVWWGG [VIB_P01]
Kd [6]: 12.2 µM

DDADVWWGG [VIB_P02]
Kd [6]: 3.68 µM

AASDVWWGG [VIB_P19]
Kd [6]: 18.1 µM

DASAVWWGG [VIB_P04]
Kd [6]: 5.85 µM

ADSDVWWGG [VIB_P12]
Kd [6]: 7.58 µM

DDSAVWWGG [VIB_P03]
Kd [6]: 10 µM

B2: VIB-0068911 (peptide)
peptide: [dD]I[F72]WS
modifications: not fully specified; reading uncertain
notes: as for B1
% inhibition 50 µM [3]: 98.1% | IC50 [3]: 6.54 µM | Kd [4]: 0.54 µM | % inhibition 100 µM [5]: 90% | IC50 [5]: 38 µM

[dD]DSDVWWGG [VIB_P08]
Kd [6]: 6.45 µM

B3: VIB-0068905 (peptide)
peptide: DIXWS
modifications: D-aspartic acid at position 1; position 3 (X) is the non-natural residue F15 = methylcyclohexane
notes: as for B1
% inhibition 50 µM [3]: 94.8% | IC50 [3]: 8.11 µM | Kd [4]: 0.25 µM | % inhibition 100 µM [5]: 68.3% | IC50 [5]: 78.8 µM

B4: VIB_P33 (peptide)
peptide: DVWWG
notes: also called DVWWG 5-mer; wild-type 5-mer
% inhibition 50 µM [7]: 66% | Kd [6]: 9.09 µM | Kd [4]: 9.09 µM

DIWWS (also called VIB_34; DIWWS) [VIB_P34]
% inhibition 50 µM [7]: 81.9% | Kd [4]: 1.02 µM

B5: VIB-0068904 (peptide)
peptide: [dD]I[NEtW]WS
notes: Peptidomimetic 5-mer; position 3 is written W for N-ethyl-tryptophan
% inhibition 50 µM [3]: 26.7% | Kd [4]: 1.02 µM

DIHWG [VIB_P36]
% inhibition 50 µM [7]: 25.5% | Kd [4]: 18.4 µM

B6: VIB-0068903 (peptide)
peptide: DIXWS
modifications: D-aspartic acid at position 1; position 3 (X) is the non-natural residue F141 = ethylcyclohexane
notes: as for B1
% inhibition 50 µM [3]: 93.9% | IC50 [3]: 8.22 µM | Kd [4]: 0.93 µM | % inhibition 100 µM [5]: 76% | IC50 [5]: 154 µM

B7: VIB-0068907 (peptide)
peptide: [dD]I[F182]WS
modifications: not fully specified; reading uncertain
notes: as for B1
% inhibition 50 µM [3]: 86.2% | IC50 [3]: 12.6 µM | Kd [4]: 2.47 µM | % inhibition 100 µM [5]: 47.2% | IC50 [5]: 49.2 µM

B8: VIB-0068895 (peptide)
peptide: DIXWS
modifications: not fully specified; D-aspartic acid at position 1; position 3 (X) is the non-natural residue F195 = 2-naphtalene
notes: as for B1
% inhibition 50 µM [3]: 96.3% | IC50 [3]: 11.1 µM | Kd [4]: 1.39 µM | % inhibition 100 µM [5]: 77% | IC50 [5]: 43.3 µM

DDS[dD]VWWGG (Printed as DDS{D-ASP}VWWGG) [VIB_P11]
Kd [6]: 6.21 µM

DDSDVWW [VIB_P06]
Kd [6]: 25.8 µM

B9: VIB-0068910 (peptide)
peptide: DIXWS
modifications: D-aspartic acid at position 1; position 3 (X) is the non-natural residue F70 = ethylbenzene
notes: as for B1
% inhibition 50 µM [3]: 88.6% | IC50 [3]: 11.9 µM | Kd [4]: 2.9 µM | % inhibition 100 µM [5]: 54.2%
